# According to patent publication US12534531 (MacroGenics, dated 2026):
# T1: biotinylated-soluble human LAG-3-Fc fusion protein (human, UniProt P18627 23-450, biotinylated (site not stated))
# T1 construct: whole entry named; also called shLAG-3; shLAG-3-Fc; not shown: Fc
# T1 sequence: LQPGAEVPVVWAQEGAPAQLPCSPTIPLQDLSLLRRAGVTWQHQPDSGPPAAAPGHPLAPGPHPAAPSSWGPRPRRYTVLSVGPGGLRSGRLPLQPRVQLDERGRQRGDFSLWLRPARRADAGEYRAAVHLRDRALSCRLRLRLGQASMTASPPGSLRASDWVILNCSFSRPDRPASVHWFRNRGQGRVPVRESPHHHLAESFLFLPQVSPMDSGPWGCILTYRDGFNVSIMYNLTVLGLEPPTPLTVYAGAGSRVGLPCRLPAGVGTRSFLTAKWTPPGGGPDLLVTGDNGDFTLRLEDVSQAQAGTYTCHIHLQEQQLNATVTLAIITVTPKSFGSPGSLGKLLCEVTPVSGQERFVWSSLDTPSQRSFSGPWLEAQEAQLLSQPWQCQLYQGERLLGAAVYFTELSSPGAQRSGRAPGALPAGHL
# T2: human LAG-3 expressed on NSO cells (human, UniProt P18627 29-525)
# T2 sequence: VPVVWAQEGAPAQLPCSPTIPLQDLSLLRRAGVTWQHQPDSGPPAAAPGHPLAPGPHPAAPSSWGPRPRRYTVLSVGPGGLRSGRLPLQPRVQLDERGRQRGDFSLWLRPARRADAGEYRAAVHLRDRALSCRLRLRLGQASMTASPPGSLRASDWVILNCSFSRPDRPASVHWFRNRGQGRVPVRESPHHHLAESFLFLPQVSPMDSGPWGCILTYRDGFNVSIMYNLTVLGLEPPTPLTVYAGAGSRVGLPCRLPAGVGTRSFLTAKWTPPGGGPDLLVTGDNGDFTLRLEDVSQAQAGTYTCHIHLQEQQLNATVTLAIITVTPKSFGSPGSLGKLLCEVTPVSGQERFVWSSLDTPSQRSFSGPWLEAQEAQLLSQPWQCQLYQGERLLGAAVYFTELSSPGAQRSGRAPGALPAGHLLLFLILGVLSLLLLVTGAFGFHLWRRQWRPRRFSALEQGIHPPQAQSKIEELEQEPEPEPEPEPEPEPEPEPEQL
# B1: LAG-3 mAb A IgG4 (P) (antibody, V domains shown)
# VH: QVQLQQWGAGLLKPSETLSLTCAVYGGSFSDYYWNWIRQPPGKGLEWIGEINHNGNTNSNPSLKSRVTLSLDTSKNQFSLKLRSVTAADTAVYYCAFGYSDYEYNWFDPWGQGTLVTVSS
# VL: EIVLTQSPATLSLSPGERATLSCRASQSISSYLAWYQQKPGQAPRLLIYDASNRATGIPARFSGSGSGTDFTLTISSLEPEDFAVYYCQQRSNWPLTFGQGTNLEIK
# notes: IgG4 (P); also called 25F7
# B2: LAG-3 mAb A IgG1 (AA) (antibody, V domains shown)
# VH: B1 VH
# VL: B1 VL
# notes: IgG1 (AA)
# B3: hLAG-3 mAb 1 (1.4) IgG4 (P) (antibody, V domains shown)
# VH: QVQLVQSGAEVKKPGASVKVSCKASGYTFTNYGMNWVRQAPGQGLEWMGWINTYTGESTYADDFEGRFVFSMDTSASTAYLQISSLKAEDTAVYYCARESLYDYYSMDYWGQGTTVTVSS
# VL: DIVMTQTPLSLSVTPGQPASISCKSSQSLLHSDAKTYLNWLLQKPGQPPERLIYLVSELDSGVPDRFSGSGSGTDFTLKISRVEAEDVGVYYCWQGTHFPYTFGGGTKVEIK
# B4: hLAG-3 mAb 1 (1.4) IgG1 (AA) (antibody, V domains shown)
# VH: B3 VH
# VL: B3 VL
# B5: BSAB A (bispecific antibody)
# heavy 1: QVQLVQSGAEVKKPGASVKVSCKASGYSFTSYWMNWVRQAPGQGLEWIGVIHPSDSETWLDQKFKDRVTITVDKSTSTAYMELSSLRSEDTAVYYCAREHYGTSPFAYWGQGTLVTVSSASTKGPSVFPLAPSSKSTSGGTAALGCLVKDYFPEPVTVSWNSGALTSGVHTFPAVLQSSGLYSLSSVVTVPSSSLGTQTYICNVNHKPSNTKVDKRVEPKSCEKTHTCPECPAPEAAGGPSVFLFPPKPKDTLMISRTPEVTCVVVDVSHEDPEVKFNWYVDGVEVHNAKTKPREEQYNSTYRVVSVLTVLHQDWLNGKEYKCKVSNKALPAPIEKTISKAKGQPREPQVYTLPPSREEMTKNQVSLTCEVKGFYPSDIAVEWESNGQPENNYKTTPPVLDSDGSFFLYSKLTVDKSRWQQGNVFSCSVMHEALHNHYTQKSLSLSPG
# light 1: EIVLTQSPATLSLSPGERATLSCRASESVDNYGMSFMNWFQQKPGQPPKLLIHAASNQGSGVPSRFSGSGSGTDFTLTISSLEPEDFAVYFCQQSKEVPYTFGGGTKVEIKRTVAAPSVFIFPPSDEQLKSGTASVVCLLNNFYPREAKVQWKVDNALQSGNSQESVTEQDSKDSTYSLSSTLTLSKADYEKHKVYACEVTHQGLSSPVTKSFNRGEC
# heavy 2: QVQLVQSGAEVKKPGASVKVSCKASGYTFTNYGMNWVRQAPGQGLEWMGWINTYTGESTYADDFEGRFVFSMDTSASTAYLQISSLKAEDTAVYYCARESLYDYYSMDYWGQGTTVTVSSASTKGPSVFPLAPSSKSTSGGTAALGCLVKDYFPEPVTVSWNSGALTSGVHTFPAVLQSSGLYSLSSVVTVPSSSLGTQTYICNVNHKPSNTKVDKRVEPKSCRKTHTCPRCPAPEAAGGPSVFLFPPKPKDTLMISRTPEVTCVVVDVSHEDPEVKFNWYVDGVEVHNAKTKPREEQYNSTYRVVSVLTVLHQDWLNGKEYKCKVSNKALPAPIEKTISKAKGQPREPQVYTLPPSREEMTKNQVSLTCLVKGFYPSDIAVEWESNGQPENNYKTTPPVLDSDGSFFLYSRLTVDKSRWQQGNVFSCSVMHEALHNHYTQKSLSLSPG
# light 2: DIVMTQTPLSLSVTPGQPASISCKSSQSLLHSDAKTYLNWLLQKPGQPPERLIYLVSELDSGVPDRFSGSGSGTDFTLKISRVEAEDVGVYYCWQGTHFPYTFGGGTKVEIKRTVAAPSVFIFPPSDEQLKSGTASVVCLLNNFYPREAKVQWKVDNALQSGNSQESVTEQDSKDSTYSLSSTLTLSKADYEKHKVYACEVTHQGLSSPVTKSFNRGEC
# Experiments:
# [1] = target: T1, biotinylated-soluble human LAG-3-Fc …; test: FACS: inhibition of shLAG-3-Fc binding to MHC II on Daudi cells (column head prints EC50); SM; SD 0.1900
# [2] = target: T2, human LAG-3 expressed on NSO cells; test: FACS saturation binding to NSO cells expressing LAG-3; SM; SD 0.1376
# [3] = target: T1, biotinylated-soluble human LAG-3-Fc …; test: FACS: inhibition of shLAG-3-Fc binding to MHC II on Daudi cells (column head prints EC50); SM; SD 0.3407
# [4] = target: T2, human LAG-3 expressed on NSO cells; test: FACS saturation binding to NSO cells expressing LAG-3; SM; SD 0.1660
# [5] = target: T1, biotinylated-soluble human LAG-3-Fc …; test: FACS: inhibition of shLAG-3-Fc binding to MHC II on Daudi cells (column head prints EC50); SM; SD 0.2176
# [6] = target: T2, human LAG-3 expressed on NSO cells; test: FACS saturation binding to NSO cells expressing LAG-3; SM; SD 0.1969
# [7] = target: T1, biotinylated-soluble human LAG-3-Fc …; test: FACS: inhibition of shLAG-3-Fc binding to MHC II on Daudi cells (column head prints EC50); SM; SD 0.1409
# [8] = target: T2, human LAG-3 expressed on NSO cells; test: FACS saturation binding to NSO cells expressing LAG-3; SM; SD 0.3430
# [9] = target: T1, biotinylated-soluble human LAG-3-Fc …; test: FACS: inhibition of shLAG-3-Fc binding to MHC II on Daudi cells (column head prints EC50); SM; SD 0.0571
# [10] = target: T3, human PD-1 expressed on the surface of cells (NSO cells expressing human PD-1; MNFAT-luc2/PD-1 Jurkat cells) (human, UniProt Q15116 21-288); test: FACS: inhibition of sPD-L1 binding to PD-1 on NSO cells; SM; SD 0.3097
# T3 construct: also called cell surface PD-1; PDCD1 transfected NSO cells expressing PD-1
# [11] = target: T3, human PD-1 expressed on the surface of …; test: FACS: inhibition of sPD-L2 binding to PD-1 on NSO cells; SM; SD 0.5438
# T3 sequence (Q15116 21-288): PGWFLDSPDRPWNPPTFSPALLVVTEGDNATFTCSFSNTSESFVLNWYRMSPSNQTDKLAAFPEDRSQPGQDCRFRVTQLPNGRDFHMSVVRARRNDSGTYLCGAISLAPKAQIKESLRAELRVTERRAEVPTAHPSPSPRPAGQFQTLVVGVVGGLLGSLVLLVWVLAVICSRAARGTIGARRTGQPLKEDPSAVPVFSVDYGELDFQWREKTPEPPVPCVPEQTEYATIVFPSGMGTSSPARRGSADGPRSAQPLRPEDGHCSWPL
binder,measurement,setting,value
B1,IC50,[1],701 nM
same,EC50,[2],597 nM
B2,IC50,[3],592 nM
same,EC50,[4],452 nM
B3,IC50,[5],482 nM
same,EC50,[6],1010 nM
B4,IC50,[7],364 nM
same,EC50,[8],607 nM
B5,IC50,[9],710 nM
same,IC50,[10],2160 nM
same,IC50,[11],4880 nM
